Experimental data taken from patent US20240343817A1 (STAIDSON BEIJING BIOPHARMACEUTICALS, published 2024).

T1: human TNFR2 (human, UniProt P20333 23-257)
T1 construct: Bought protein coated on the ELISA plate; also called TNFR2 (Sino biological, 10417-h08h); INFR2
T1 sequence (looked up): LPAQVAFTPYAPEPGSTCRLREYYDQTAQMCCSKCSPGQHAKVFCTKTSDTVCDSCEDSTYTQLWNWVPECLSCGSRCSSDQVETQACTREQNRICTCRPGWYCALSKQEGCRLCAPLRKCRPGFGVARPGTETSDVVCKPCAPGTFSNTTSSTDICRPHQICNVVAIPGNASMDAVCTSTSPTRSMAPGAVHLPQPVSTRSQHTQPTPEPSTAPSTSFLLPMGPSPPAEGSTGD

T2: human TNFRSF11A (human, UniProt Q9Y6Q6 30-212)
T2 construct: Bought protein coated on the ELISA plate; also called TNFRSF11A (Sino biological, 16078-h08h)
T2 sequence (looked up): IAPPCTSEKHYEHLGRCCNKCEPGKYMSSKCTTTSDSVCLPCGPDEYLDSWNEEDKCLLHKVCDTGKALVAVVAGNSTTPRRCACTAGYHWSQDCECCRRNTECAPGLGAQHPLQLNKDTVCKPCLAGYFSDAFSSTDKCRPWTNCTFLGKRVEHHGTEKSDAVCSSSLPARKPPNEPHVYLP

B1: D11 (antibody, IgG4, V domains shown)
VH: QVQLVQSGAEVKKPGASVKVSCKASVYSFTGYTVNWVRQAPGQRLEWMGLINPYNGGTTYNQKFKGRVTLTIDKSASTAYMELSSLRSEDTAVYYCASSYYSNPYAMDYWGQGTLVTVSS
VL: EIVMTQSPATLSVSPGERATLSCKASQNVHTAVAWYQQKPGQAPRLLIYLASDRRTGIPARFSGSGSGTEFTLTISSLQSEDFAVYYCLQHWNYPLTFGQGTKVEIK
notes: Humanized form of D1; recombined with human IgG constant regions (preferably IgG4 heavy chain and kappa light chain); also called humanized anti-CD40 antibody D11
B2: D33 (antibody, human IgG4, V domains shown)
VH: QVQLVQSGAEVKKPGASVKVSCKASVYSFTGYTVNWVRQAPGQRLEWMGLINPLNGGTTYNQKFKGRVTLTIDKSASTAYMELSSLRSEDTAVYYCASSYYSTPYAMDYWGQGTLVTVSS
VL: EIVMTQSPATLSVSPGERATLSCKASQNVHTRVAWYQQKPGQAPRLLIYLASDRRTGIPARFSGSGSGTEFTLTISSLQSEDFAVYYCLQHWNYPLTFGQGTKVEIK
notes: also called optimized anti-CD40 antibody D33
B3: D47 (antibody, human IgG4, V domains shown)
VH: QVQLVQSGAEVKKPGASVKVSCKASVYSFTGYTVNWVRQAPGQRLEWMGLINPYTGGTTYNQKFKGRVTLTIDKSASTAYMELSSLRSEDTAVYYCASSYYSNPYASDYWGQGTLVTVSS
VL: EIVMTQSPATLSVSPGERATLSCKASQNVHTRVAWYQQKPGQAPRLLIYLASDRRTGIPARFSGSGSGTEFTLTISSLQSEDFAVYYCLQHWTYPLTFGQGTKVEIK
notes: also called optimized anti-CD40 antibody D47
B4: D42 (antibody, V domains shown)
VH: QVQLVQSGAEVKKPGASVKVSCKASVYSFTGYTVNWVRQAPGQRLEWMGLIVPYNGGTTYNQKFKGRVTLTIDKSASTAYMELSSLRSEDTAVYYCASSRYSNPYAMDYWGQGTLVTVSS
VL: EIVMTQSPATLSVSPGERATLSCKASQNVHTRVAWYQQKPGQAPRLLIYLASDRRTGIPARFSGSGSGTEFTLTISSLQSEDFAVYYCLQHWNYPLTFGQGTKVEIK
notes: also called optimized anti-CD40 antibody D42
B5: ASKP1240 (antibody, INN chains, looked up, V domains shown)
VH: QLQLQESGPGLLKPSETLSLTCTVSGGSISSPGYYGGWIRQPPGKGLEWIGSIYKSGSTYHNPSLKSRVTISVDTSKNQFSLKLSSVTAADTAVYYCTRPVVRYFGWFDPWGQGTLVTVSS
VL: AIQLTQSPSSLSASVGDRVTITCRASQGISSALAWYQQKPGKAPKLLIYDASNLESGVPSRFSGSGSGTDFTLTISSLQPEDFATYYCQQFNSYPTFGQGTKVEIK
modifications: IgG4

Legend:
[1] = biological target: T3, human CD40 extracellular domain (recombinant) (human, UniProt P25942 21-193); test: affinity assay not described (data not shown)
T3 construct: Extracellular domain expressed in 293F cells; also called hCD40; CD40-His; not shown: tag (His, Avi-His, mouse Fc or human Fc)

[2] = biological target: T3, human CD40 extracellular domain …; test: ELISA, plate coated with recombinant human CD40 extracellular domain, antibody (human IgG4 format) in serial dilution, anti-human IgG-HRP, OD450
Method: (§1) ELISA Binding Assay: The selected monoclonal full-length antibodies D1, D2, D3, D5, D6, or D7 were subjected to binding assays with CD40 extracellular domain of different species, respectively. The assay was designed to identify full-length antibodies that cross-reacted with CD40 of different species. Briefly, the human or Rhesus monkey CD40 prepared in example 1 was dissolved in PBS and coated on […] with 0.1 μg/well followed by incubation at 4° C. overnight. The 96-well plates were washed with TBST before adding antibodies, blocked with 5% milk for 1-2 h at 37° C., and washed again with TBST. Firstly, each antibody sample was diluted to 10 μg/mL, and then serially diluted at a 1:3 ratio. 100 μL of serially diluted antibodies were added to each well and incubated for 1 h at 37° C. After washing with TBST for 6 times, 100 μL of the secondary antibody (goat anti-human IgG-HRP (Sigma. A8667)) was added to each well and incubated for 1 h at 37° C. After washing with TBST for 3 times, TMB was added with 100 μL/well and incubated for 10-20 minutes at 37° C. 2M H₂SO₄ was used to stop the reaction and plates were read for the absorbance at 450 nm. The ELISA results were then analyzed and the binding curves were generated by PRISM.
(§2) The biding affinity of the optimized full length CD40 antibodies with human or rhesus monkey CD40 was evaluated by Elisa according to the corresponding protocol as described in Example 2, and ASKP1240 was used as control.

[3] = biological target: T4, Rhesus monkey CD40 extracellular domain (recombinant) (Rhesus monkey, UniProt F6SNI1 21-193); test: ELISA, plate coated with recombinant rhesus monkey CD40 extracellular domain, antibody (human IgG4 format) in serial dilution, anti-human IgG-HRP, OD450
T4 construct: extracellular domain; also called RheCD40
Method: as §1, §2

[4] = biological target: T5, human CD40 on cells (human, UniProt P25942 21-277); test: cell-based or functional assay
[5] = biological target: T3, human CD40 extracellular domain …; test: SPR, Biacore 8K; antibody on CM5 chip, hCD40 at various concentrations
Method: The binding affinity of the optimized anti-CD40 antibodies with human […] was characterized using Biacore 8K (GE). Anti-CD4 (antibodies were stabilized on sensor chip CM5 The affinities for hCD40 at various concentrations were measured. Using the SPR technology, the association and dissociation rates were measured, and binding affinity was determined.

[6] = biological target: T1, human TNFR2; test: ELISA; protein coated, antibody titrated, anti-human IgG-HRP
Method: (§3) The cross-reactivities between anti-CD40 antibodies and the protein homologous with CD40 were detected. It was well known that there is high sequence homology among TNFR superfamily members. When compared with CD40 sequence. TNFRSF11A (38.95% homology) and INFR2 (37.20% homology) are with the highest homology. The cross-reactions between the two proteins and anti-CD40 antibody were detected by ELISA. respectively. Briefly, human TNFRSF11A (Sino biological, 16078-h08h), human TNFR2 (Sino biological, 10417-h08h) or the human CD40 extracellular domain protein prepared in example 1 was coated on ELISA plate and incubated at 4° C. overnight, respectively. After serial dilution, the optimized full-length anti-CD40 antibodies were added into 96 well plates and incubated respectively. After washing with TBST solution, the anti-human IgG-HRP antibody was added and incubated at RT. After washing with PBST, TMB was added into each well for development. Plates were read for the absorbance at 450 nm.

[7] = biological target: T2, human TNFRSF11A; test: as above
Method: as §3

[8] = biological target: Rhesus monkey CD40 extracellular domain (recombinant) (Rhesus monkey) (UniProt F6SNI1); test: ELISA, plate coated with recombinant rhesus monkey CD40 extracellular domain, antibody in serial dilution, anti-human IgG-HRP, OD450
[9] = biological target: human CD40 extracellular domain (recombinant) (human) (UniProt P25942); test: SPR, Biacore 8K; antibody on CM5 chip, hCD40 at various concentrations
[10] = biological target: T5, human CD40 on cells; test: cell-based or functional assay; remark: listed apart in the source
[11] = biological target: Rhesus monkey CD40 extracellular domain (recombinant) (Rhesus monkey) (UniProt F6SNI1); test: ELISA; CD40 extracellular domain coated 0.1 µg/well, antibody titrated from 10 µg/mL 1:3, anti-human IgG-HRP
[12] = biological target: human CD40 extracellular domain (recombinant) (human) (UniProt P25942); test: as above
[13] = biological target: human CD40 extracellular domain (recombinant) (human) (UniProt P25942); test: ELISA, plate coated with recombinant human CD40 extracellular domain, antibody in serial dilution, anti-human IgG-HRP, OD450

T5 sequence (P25942 21-277 limits assumed): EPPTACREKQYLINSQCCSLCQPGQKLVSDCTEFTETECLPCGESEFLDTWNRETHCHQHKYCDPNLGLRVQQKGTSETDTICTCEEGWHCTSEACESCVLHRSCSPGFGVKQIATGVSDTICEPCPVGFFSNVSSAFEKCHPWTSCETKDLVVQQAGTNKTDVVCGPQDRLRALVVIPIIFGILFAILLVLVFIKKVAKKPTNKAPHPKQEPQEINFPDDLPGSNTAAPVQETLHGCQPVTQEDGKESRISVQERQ
T3 sequence (P25942 21-193): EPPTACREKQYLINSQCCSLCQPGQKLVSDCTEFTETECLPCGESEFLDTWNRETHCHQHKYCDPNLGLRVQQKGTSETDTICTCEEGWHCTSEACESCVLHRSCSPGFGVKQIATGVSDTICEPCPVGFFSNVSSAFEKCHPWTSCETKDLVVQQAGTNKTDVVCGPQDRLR
Sequence of human CD40 extracellular domain (recombinant) (human) (P25942 21-193): as above
Sequence of Rhesus monkey CD40 extracellular domain (recombinant) (Rhesus monkey) (F6SNI1 entry or part of it): as the sequence (P25942 21-193) above, with G43S, H56R, W89L, T92M, A95S, L101P, S106L, H142R, L172Q counted along it

Row | Binder | binding result [1] | EC50 (read off the curve) [2] [µg/mL] | EC50 (read off the curve) [3] [µg/mL] | IC50, HEK-Blue CD40L NF-κB activation assay (SEAP), antibody as human IgG4 [4] [µg/mL] | Kd [5] [nM] | koff [5] [s⁻¹] | kon [5] [M⁻¹ s⁻¹] | binding result [6] | binding result [7] | EC50 (read off the curve) [8] [µg/mL] | Kd [9] [nM] | koff [9] [s⁻¹] | kon [9] [M⁻¹ s⁻¹] | IC50, HEK-Blue CD40L NF-κB activation assay (SEAP) [10] [µg/mL] | IC50, HEK-Blue CD40L NF-κB activation assay (SEAP), Fc-3*G4S-CD40L stimulus [10] [µg/mL] | EC50 [11] [µg/mL] | EC50 [12] [µg/mL] | EC50 (read off the curve) [13] [µg/mL]
1 | B1 | binds |  |  |  |  |  |  |  |  |  |  |  |  |  |  |  |  | 
2 | B2 |  | ~0.2 | ~0.1 | 0.0122 | 1.63 | 0.000494 | 304000 | no binding (tested: 10 µg/mL) | no binding (tested: 10 µg/mL) |  |  |  |  |  |  |  |  | 
3 | B3 |  | ~0.2 | ~0.1 | 0.0114 | 1.59 | 0.000303 | 191000 | no binding (tested: 10 µg/mL) | no binding (tested: 10 µg/mL) |  |  |  |  |  |  |  |  | 
4 | B4 |  | ~0.2 | ~0.1 | 0.00962 | 1.26 | 0.000277 | 221000 | no binding (tested: 10 µg/mL) | no binding (tested: 10 µg/mL) |  |  |  |  |  |  |  |  | 
5 | B5 |  |  |  |  |  |  |  |  |  | 0.1 | 2.07 | 0.000617 | 298000 | 0.0134 | 0.0111 | 0.181 | 0.211 | 0.1
